In the assay the test system is MEFs. The assay can be described thus: Stimulation of serum-starved MEFs with growth factors or serum (Ezh2, Ndy1, miR-101 levels). The format is cell-based, mouse. The note with it: serum-starved MEFs, 24 hours after stimulation. The method, then: MEFs were transfected with control siRNA and stimulated with serum (10%) for 1, 4, 12 and 18 hours. (upper) Nuclear extracts were probed with antibody specific for Ezh2 and for CREB, levels of which served as loading control. (lower) Ndy1 and Ezh2 mRNA levels were measured with real time RT-PCR; GAPDH mRNA levels were used as internal control. Data are expressed as mean±SD.
Serum starved MEFs were stimulated with each of FGF-2 (20 ng/ml), IGF-1 (20 ng/ml), PDGF (20 ng/ml), serum (10%), VEGF (20 ng/ml), EGF (20 ng/ml) or TNFα (50 ng/ml). Nuclear extracts were probed with antibody specific for Ezh2 and for CREB, levels of which served as loading control.
Data are expressed as mean±SD.
MEFs transfected with control siRNA were stimulated with FGF-2 for 1, 4, 12 or 18 hours. (upper) Nuclear extracts were probed with antibody specific for Ezh2. CREB levels served as loading control. (middle) Ndy1 and Ezh2 mRNA were measured with real time RT-PCR; GAPDH mRNA levels were used as internal control. Data are expressed as mean±SD. (lower) miR-101 levels were measured with real time RT-PCR; U6 small nuclear RNA levels were used as internal control. Data are expressed as mean±SD. […]

B1: EGF: growth factor, R&D systems (protein, UniProt P01133 23-1207, looked up)
Pro-epidermal growth factor: PQHWSCPEGTLAGNGNSTCVGPAPFLIFSHGNSIFRIDTEGTNYEQLVVDAGVSVIMDFHYNEKRIYWVDLERQLLQRVFLNGSRQERVCNIEKNVSGMAINWINEEVIWSNQQEGIITVTDMKGNNSHILLSALKYPANVAVDPVERFIFWSSEVAGSLYRADLDGVGVKALLETSEKITAVSLDVLDKRLFWIQYNREGSNSLICSCDYDGGSVHISKHPTQHNLFAMSLFGDRIFYSTWKMKTIWIANKHTGKDMVRINLHSSFVPLGELKVVHPLAQPKAEDDTWEPEQKLCKLRKGNCSSTVCGQDLQSHLCMCAEGYALSRDRKYCEDVNECAFWNHGCTLGCKNTPGSYYCTCPVGFVLLPDGKRCHQLVSCPRNVSECSHDCVLTSEGPLCFCPEGSVLERDGKTCSGCSSPDNGGCSQLCVPLSPVSWECDCFPGYDLQLDEKSCAASGPQPFLLFANSQDIRHMHFDGTDYGTLLSQQMGMVYALDHDPVENKIYFAHTALKWIERANMDGSQRERLIEEGVDVPEGLAVDWIGRRFYWTDRGKSLIGRSDLNGKRSKIITKENISQPRGIAVHPMAKRLFWTDTGINPRIESSSLQGLGRLVIASSDLIWPSGITIDFLTDKLYWCDAKQSVIEMANLDGSKRRRLTQNDVGHPFAVAVFEDYVWFSDWAMPSVMRVNKRTGKDRVRLQGSMLKPSSLVVVHPLAKPGADPCLYQNGGCEHICKKRLGTAWCSCREGFMKASDGKTCLALDGHQLLAGGEVDLKNQVTPLDILSKTRVSEDNITESQHMLVAEIMVSDQDDCAPVGCSMYARCISEGEDATCQCLKGFAGDGKLCSDIDECEMGVPVCPPASSKCINTEGGYVCRCSEGYQGDGIHCLDIDECQLGEHSCGENASCTNTEGGYTCMCAGRLSEPGLICPDSTPPPHLREDDHHYSVRNSDSECPLSHDGYCLHDGVCMYIEALDKYACNCVVGYIGERCQYRDLKWWELRHAGHGQQQKVIVVAVCVVVLVMLLLLSLWGAHYYRTQKLLSKNPKNPYEESSRDVRSRRPADTEDGMSSCPQPWFVVIKEHQDLKNGGQPVAGEDGQAADGSMQPTSWRQEPQLCGMGTEQGCWIPVSSDKGSCPQVMERSFHMPSYGTQTLEGGVEKPHSLLSANPLWQQRALDPPHQMELTQ
modifications: Pro-epidermal growth factor
notes: growth factor, R&D systems
For B1, the “level at which Ezh2 expression is induced” value is “at both the RNA and protein levels”. The Ezh2 expression result (20 ng/ml (serum 10%)) is on record as “significantly upregulated”.

Source of the values: patent publication US20110008302A1, “Compositions and methods for immortalizing cells and screening for anti-cancer agents” (priority 2007, published 2011).
